Test results reported in US9664676B2, “RNA sequences that induce fluorescence of small molecule fluorophores” (Cornell University, priority 2013, dated 2017).
*1 amine or outer side, *2 acyl side, *3 side chain or, on linkers, in order; H or OH if unused. Where a SMILES comes first, the peptide text is derived from it. Bridges are numbered along the chain shown (N, C = ends). Roman numbers before positions name the chains, in order. [ ]: non-standard residue; d: D form. Actinocin(9to1) = Cc1c2oc3c(C)ccc(C(=O)[*:1])c3nc-2c(C(=O)[*:2])c(N)c1=O; NMeV = CN[C@H](C(=O)O)C(C)C; Sar = CNCC(=O)O

What was measured:
COS-7 cells [1] = test: Analysis of DFHBI cell permeability; type: in vitro ADME; conditions: mammalian cells, 20 μM DFHBI
Description: Analysis of DFHBI Cell Permeability: COS-7 cells were transfected with pCDNA-60CGG-Spinach2. 24 h after transfection, cells were imaged in medium supplemented with 25 mM HEPES, 5 mM MgSO4, 1 μg/ml Hoechst 33342 and 20 μM DFHBI. Images were acquired for Hoechst and Spinach2 signals every 5 min for 1 h for 20 cells. All signals were first normalized to area and then normalized to the highest signal for a given nucleus to determine the time for maximal signal to be reached.

COS-7 cells [2] = test: Live cell imaging of (CGG)60-Spinach / (CGG)60-Spinach2 in COS-7 cells; type: cell-based; conditions: at 8 h, 1 μg/ml
Description: Transfection of COS-7 Cells and Live Cell Imaging: COS-7 cells (ATCC-CRL-1651) were cultured and passaged in DMEM supplemented with 50 units of penicillin and 50 μg of streptomycin per milliliter. […] Cells were imaged in CO2-independent medium (Invitrogen) supplemented with L-glutamine. At 30 min-1 h before imaging, medium was supplemented with 25 mM HEPES, 5 mM MgSO4, 1 μg/ml Hoechst 33342 (when appropriate) and 20 μM DFHBI or vehicle. […] Spinach was imaged with a filter cube typically used for fluorescein or EGFP, with a sputter-coated excitation filter 470/40 nm, dichroic mirror 495 nm (long-pass), and emission filter 525/50 (Chroma Technology). DsRed-Max and mCherry were imaged using a filter cube typically used for Texas Red, with a sputter coated excitation filter 560/40 nm and emission filter 630/75 nm (Chroma Technology). Background intensity was subtracted from all pixel intensity measurements. Image analyses were completed with NIS-Elements AR 3.2 (Nikon). Drug treatments were carried out as specified. […] DMSO was added to a final concentration of 0.1% for vehicle treatments. […] After 2 h, the transfection medium was replaced with imaging medium containing DFHBI.

HEK293T cells = test: Flow cytometry of HEK293T cells expressing 5S rRNA-aptamer fusions with DFHBI-1T; type: cell-based; conditions: flow cytometry
Description: FIG. 24 illustrates the quantification of the flow cytometry analysis of aptamers expression in mammalian cells. To compare specific aptamers' brightness in mammalian cells, HEK293T cells were transfected with two plasmids: one expressing aptamer (with or without tRNA) fused to 5S rRNA and another expressing mCherry fluorescent protein. Cells were then treated with 40 μM DFHBI-1T and analyzed on FACSAria III instrument in two channels: green (ex=488 nm; em=525±50 nm) and red (ex=561 nm and em=610±20). For quantification, mean fluorescent signal of the non-negative population was calculated and then mean fluorescent signal of the negative population was subtracted from it to assess specific, not background fluorescent signal. Finally, this number was multiplied by the percentage of the non-negative population to provide the total fluorescent signal of the non-negative population. These numbers are plotted on the bar graph above. Where indicated, cells were also pre-treated with 5 mM MgSO4. Error bar indicates robust SD calculated by FlowJo program, used for data analysis.
Imaging 5S-tBroccoli and 5S-t-tdBroccoli: Plasmids were transfected into HEK293T cell using FuGENE HD reagent (Promega) following manufacture's protocol. Cell imaging was carried out as previously described for 5S-Spinach (Paige et al., “RNA Mimics of Green Fluorescent Protein,” Science 333(6042): 642-6 (2011), which is hereby incorporated by reference in its entirety) with DFHBI-1T instead of DFHBI. […]
Flow cytometry was used to quantify average brightness of tRNA. Transfected cells were analyzed in two channels: green (ex=488 nm; em=525±50 nm) and red (ex=561 nm; em=610±20). […] As evidenced from FIG. 14A, 5S-tBroccoli and 5S-tdBroccoli are clearly detectable in the green fluorescence channel and this specific signal appears only upon cells treatment with DFHBI-1T (FIG. 23).

E. coli = test: Fluorescence measurements of E. coli (colonies, suspensions) expressing aptamers with DFHBI-1T; type: cell-based, Escherichia coli; conditions: tRNA fusions, suspension/plate reader, DFHBI-1T
Description: Fluorescence Measurements of E. coli: Fluorescence measurements of E. coli were done in two general ways. To assess fluorescence brightness of bacterial colonies on a plate Acella or LMG194 strains cells were transferred to a new LB/agar dish with respective antibiotic and allowed to grow overnight at 37° C. Typically four to six colonies for the same aptamer were grown on the same plate to provide statistical data. These plates already contained 40 μM DFHBI-1T (or DFHBI) and 0.2% arabinose (in case of LMG194 strain). When Acella strain was used, 1 mM IPTG was added the next morning and incubation was continued for four to six hours more at 37° C. Bacterial colonies were then imaged under ChemiDoc MP imager as described above and images were processed in ImageJ program.
To measure fluorescence of bacterial cell suspensions BL21 Star (DE3) (Life Technologies) strain and pET28c-based expression plasmids were used. This combination provided the strongest signal. Fresh colony was inoculated into LB media with kanamycin and allowed to grow overnight at 37° C. to OD600 0.4. The cells were then induced with addition of 1 mM IPTG for 2-4 h at 37° C. After induction, cells were normalized for cell density and incubated with 400 μM DFHBI-1T. Cells were then measured for total fluorescence using a Genios Pro plate reader at 465 nm excitation and 535 nm emission. All values were normalized for slightly different excitation and emission spectra of Spinach2 and Broccoli.

[3] = In-gel imaging of tBroccoli and tdBroccoli (DFHBI-1T / SYBR Gold staining); type: biochemical; conditions: in vitro transcribed tBroccoli and tdBroccoli in PAGE gel
Description: In-Gel Imaging of Spinach-Containing RNAs: Total bacterial RNA was purified using Trizol LS reagent (Life Technologies) following the manufacturer's protocol. Typically, 200-500 ng of total RNA or 50-100 ng of in vitro transcribed RNA was loaded into a well of precast 6% TBE-Urea Gel (Life Technologies) and ran at 270-300 V in 1×TBE buffer. RiboRuler Low Range RNA Ladder (Thermo Scientific) was used as band size standard.
After the gel was run to completion, the gel was washed 3×5 min with water and then stained for 30 min in 10 μM DFHBI or DFHBI-1T in buffer containing 40 mM HEPES pH 7.4, 100 mM KCl, 1 mM MgCl2. Then gel was imaged using a ChemiDoc MP with 470/30 nm excitation and 532/28 nm emission. Next, to see all the RNA in the sample, the gel was again washed 3×5 min with water followed by staining for 30 min with SYBR Gold (or Green) dye (Life Technologies) diluted 1/10000 in TBE buffer. Then gel was imaged under the same instrument using preset SYBR Gold (or Green) channel (302 nm excitation and 590/110 nm emission). Gel bands intensities were quantified in Image Lab 5.0 software (Bio-Rad). The bacterial 5S rRNA band was used for loading normalization.

[4] = In vitro fluorescence activation of DFHBI-1T by 29-1 and truncation mutants; type: biochemical; conditions: bound to DFHBI-1T
Description: (§1) In Vitro Characterization of Aptamers: dsDNA from the brightest bacterial cells in a library was PCR amplified from eluted plasmids. Truncation, deletion and point mutation mutants were generated from dsDNAs PCR amplified based on respective ssDNA templates (Protein and Nucleic Acid Facility, Stanford University Medical Center). Primers were designed so the PCR product contained T7 promoter sequence. When indicated, dsDNA or ssDNA also contained tRNA scaffold part. PCR products were then purified with PCR purification columns (Qiagen) and in vitro transcribed utilizing AmpliScribe T7-Flash Transcription Kit (Epicenter). RNA was purified using Bio-Spin columns (Bio-Rad), and quantified using both absorbance values and the Quant-iT RiboGreen RNA Assay Kit (Life Technologies).
All in vitro RNA properties were measured in 40 mM HEPES pH 7.4, 100 mM KCl, 1 mM MgCl2 buffer unless specified separately. All values presented are averaging of at least three independent experiments, error bars are standard deviations.
(§2) To measure the fluorescence of aptamer-fluorophore complexes, an approach that overcomes potential confounding effects of incomplete RNA folding was used. The fluorescence of RNA-fluorophore complexes can be measured in either of two ways: using “excess RNA” or “excess fluorophore” (Ponchon et al., “Recombinant RNA Technology: the tRNA Scaffold,” Nat. Methods 4(7): 571-6 (2007), which is hereby incorporated by reference in its entirety). In an “excess RNA” experiment enough RNA was added to ensure that all the fluorophore (e.g. 1 μM) is bound to the RNA even if a sizeable portion of the RNA is unfolded. As a result, one can be confident that a 1 μM RNA-fluorophore complex is present, and one can therefore calculate the “molar brightness,” the fluorescence of a specific concentration of RNA-fluorophore complex independent of RNA folding. In the case of excess fluorophore experimental conditions were reversed and 1 μM of RNA was used with a vast excess of the fluorophore. In this case, the amount of RNA-fluorophore complex is highly dependent on the amount of RNA that is folded.

[5] = In vitro fluorescence activation of DFHBI by 29-1; type: biochemical; conditions: bound to DFHBI
Description: as §1
All in vitro RNA properties were measured in 40 mM HEPES pH 7.4, 100 mM KCl, 1 mM MgCl2 buffer unless specified separately. […]
To measure the fluorescence of aptamer-fluorophore complexes, an approach that overcomes potential confounding effects of incomplete RNA folding was used. The fluorescence of RNA-fluorophore complexes can be measured in either of two ways: using “excess RNA” or “excess fluorophore” (Ponchon et al., “Recombinant RNA Technology: the tRNA Scaffold,” Nat. Methods 4(7): 571-6 (2007), which is hereby incorporated by reference in its entirety). […]

[6] = Folding measurements with DFHBI-1T; type: physicochemical; conditions: in vitro folding assay
Description: Briefly, fluorescence intensity of two solutions were compared: the one having excess of the dye and limiting amount of RNA and the other with excess of RNA and limiting amount of the dye. 1 μM of 1T (or RNA) and 20 μM of RNA (or 1T) was used. Signal from the first condition (limiting RNA) was divided by the signal from the second condition (limiting dye) to determine the fraction folded. To measure folding in a context of different flanking sequences RNA was generated from separate dsDNA fragments. These fragments were PCR amplified to have β-actin, 5S rRNA and 7SK RNA sequences on either or both sides of Broccoli. The folding assay then proceeded as described above.
as §2

[7] = Fluorescence of aptamers bound to DFHO; type: biochemical
Description: To explore this phenomenon further, a library containing over 10 million mutants of this sequence was prepared. Each of the sequences was individually expressed in E. coli bacteria. The bacteria was incubated with the fluorophore DFHO and then sorted based on their fluorescent signal on a fluorescence-activated cell sorting (FACS) instrument. Analysis of the mutations introduced into the 29-1 aptamer allowed prediction of the core sequence necessary for binding DFHO. The possibility that the core binding sequence for DFHO fluorophore is the same as for the DFHBI fluorophore was also considered. The core binding sequence for DFHBI fluorophore is identified in preceding Example 21.

## CC1=NC(=Cc2cc(F)c(O)c(F)c2)C(=O)N1C [DFHBI, 4-(3,5-difluoro-4-hydroxybenzylidene)-1,2-dimethyl-imidazol-5-one]
COS-7 cells [1]
  time to maximal fluorescence (ability to enter cells): ~30 min

## Cc1c2oc3c(C)ccc(C(=O)N[C@@H]4C(=O)N[C@H](C(C)C)C(=O)N5CCC[C@H]5C(=O)N(C)CC(=O)N(C)[C@@H](C(C)C)C(=O)O[C@@H]4C)c3nc-2c(C(=O)N[C@@H]2C(=O)N[C@H](C(C)C)C(=O)N3CCC[C@H]3C(=O)N(C)CC(=O)N(C)[C@@H](C(C)C)C(=O)O[C@@H]2C)c(N)c1=O [actinomycin D] (I: T[dV]P[Sar][NMeV] / II: T[dV]P[Sar][NMeV]; ester I:1-I:C, II:1-II:C; linker I:N-II:N via Actinocin(9to1))
COS-7 cells [2]
  cytotoxicity in COS-7 cells: cytotoxicity was observed

B1: dBroccoli: dimeric Broccoli, SEQ ID NO: 12 (nucleic acid)
chain: GAGACGGUCGGGUCCAUCUGAGACGGUCGGGUCCAGAUAUUCGUAUCUGUCGAGUAGAGUGUGGGCUCAGAUGUCGAGUAGAGUGUGGGCUC
modifications: listed as RNA, chemistry not fully specified
HEK293T cells
  detection in HEK293T cells of 5S fusions without tRNA scaffold: can be detected in cells
E. coli
  fluorescence of aptamer-expressing E. coli cells: approximately twice as fluorescent as cells expressing Broccoli
[3]
  fluorescence compared to monomeric Broccoli: almost twice the fluorescence as the monomeric Broccoli

B2: 29-1: 99-nucleotide RNA aptamer from SELEX-FACS, SEQ ID NO: 3 (nucleic acid)
chain: GGAGACGCAACUGAAUGAAAUGGUGAAGGAGACGGUCGGGUCCAGGCACAAAAAUGUUGCCUGUUGAGUAGAGUGUGGGCUCCGUAACUAGUCGCGUCAC
modifications: listed as RNA, chemistry not fully specified
[4]
  emission (em): 507 nm
  excitation (ex): 472 nm
[5]
  emission (em): 501 nm
  excitation (ex): 450 nm
[6]
  percent folded: 81%
[7]
  effect on DFHO fluorescence: significantly enhancing its fluorescence
